In the RNAGym collection of RNA variant scans (doi:10.1093/nar/gkz1192):

B1: CPEB3 Ribozyme (parent)
chain: UAACAGGGGGCCACAGCAGAAGCGUUCACGUCGCAGCCCCUGUCAGAUUCUGGUGAAUCUGCGAAUUCUGCUGUAUAUCUC

Variants of: B1
Assay: self-cleavage, relative activity (ratio to wild type); higher = more cleavage; in vitro, sequencing
Summary of the method: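 Barcoded CPEB3 ribozyme mutants, produced by rounds of error-prone PCR, self-cleaved while being transcribed with T7 RNA polymerase for 5 hours at 37°C and during a subsequent 15 min DNase I step before EDTA was added. Sequencing of template-switched cDNA on Illumina gave cleaved and total reads, and DNA sequencing assigned barcodes to variants. Each variant's relative activity is its cleaved/total read fraction divided by the unmutated ribozyme's fraction, averaged across three batches. A variant needed a minimum of 5 reads.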
In the case of C11A U51C, the self-cleavage is reported as 0.38. With G10U C37A the self-cleavage was 0.72. With C12A G30U the self-cleavage was 0.26. With C11G A65G the self-cleavage was 0.21. C11G U58A showed a self-cleavage of 0.39. C11G U48C showed a self-cleavage of 0.11. In the case of C12A U43A, the self-cleavage is reported as 0.99. Variant C11G U67G has a self-cleavage of 0.2. C11G U67A showed a self-cleavage of 0.27. With C11G U67C the self-cleavage was 0.16. Variant C11G A77G has a self-cleavage of 0.64. In the case of C11A C68A, the self-cleavage is reported as 0.14. C11G A47G showed a self-cleavage of 0.61. C12A A20U showed a self-cleavage of 0.32. Work on C12A A20G yielded a self-cleavage of 1.17. C11G G55U gave a self-cleavage of 0.55. In the case of C11G G55A, the self-cleavage is reported as 0.14. In the case of C11G U60C, the self-cleavage is reported as 0.29. With C11G U60G the self-cleavage was 0.21. C11G U60A gave a self-cleavage of 0.12. For C11G G36U, the self-cleavage was 0.09. C11U U67G gave a self-cleavage of 0.18. C11U U67C gave a self-cleavage of 0.18. C11U U67A showed a self-cleavage of 0.36. In the case of C11A G73A, the self-cleavage is reported as 1.07. In the case of C11A G73C, the self-cleavage is reported as 0.87. C11U A35G gave a self-cleavage of 1.27. C11U A35U gave a self-cleavage of 0.33. C11G U26A showed a self-cleavage of 0.34. Work on C11G U26C yielded a self-cleavage of 0.24. C11G A13U gave a self-cleavage of 0.75. With C11G A13G the self-cleavage was 0.32. Work on C12A C79A yielded a self-cleavage of 1.28. For C11A A45G, the self-cleavage was 0.41. C12A G55C gave a self-cleavage of 0.78. With C12A U54A the self-cleavage was 1.1. For C12A U54C, the self-cleavage was 1.12. With C12A U58C the self-cleavage was 0.54. In the case of G10U C50U, the self-cleavage is reported as 0.17. C11A A56G gave a self-cleavage of 0.34. C11A A56U gave a self-cleavage of 0.12. C11G A56U gave a self-cleavage of 0.28. C11G A56C gave a self-cleavage of 0.38. Work on C11G G46U yielded a self-cleavage of 0.1. C11G C14U gave a self-cleavage of 0.93. In the case of C12A A64G, the self-cleavage is reported as 1.21. C12A A64U gave a self-cleavage of 0.56. Variant G10U U49G has a self-cleavage of 0.14. With G10U U49C the self-cleavage was 0.24. For G10U U49A, the self-cleavage was 0.31. For C12A A56G, the self-cleavage was 0.87. Work on C12A A56U yielded a self-cleavage of 0.81. With G10U U80C the self-cleavage was 0.23. In the case of C11A U48C, the self-cleavage is reported as 0.32. C11A U48G showed a self-cleavage of 0.06. For C12A G46U, the self-cleavage was 0.38. Work on C12A C29U yielded a self-cleavage of 0.7. G10U U69A showed a self-cleavage of 0.18. For G10U U69C, the self-cleavage was 0.07. Work on C12A A15C yielded a self-cleavage of 1.17. For C12A A15G, the self-cleavage was 1.19. C11U U78A gave a self-cleavage of 0.53. C11U U78C showed a self-cleavage of 0.33. Work on C11A U78C yielded a self-cleavage of 0.31. Variant C11A U78A has a self-cleavage of 0.47. In the case of G10U U78C, the self-cleavage is reported as 0.39. In the case of C11U U26C, the self-cleavage is reported as 0.31. C11U U26A showed a self-cleavage of 0.36. Work on C11U C14A yielded a self-cleavage of 0.93. With C11U A64G the self-cleavage was 0.34. Variant C11G A21G has a self-cleavage of 0.3. With C11G A21C the self-cleavage was 0.08. Work on C11G A45C yielded a self-cleavage of 0.07. C11G A45G gave a self-cleavage of 0.35. C11G A45U gave a self-cleavage of 0.23. For C11U A77G, the self-cleavage was 0.41. With C11U A77U the self-cleavage was 0.47. Work on C11U G24A yielded a self-cleavage of 0.22. Variant C12A U25C has a self-cleavage of 0.42. With C11U G63A the self-cleavage was 0.24. With C11A U60C the self-cleavage was 0.2. C11A U72A gave a self-cleavage of 0.15. Variant C11A U72C has a self-cleavage of 0.52. For C11A U80C, the self-cleavage was 0.5. In the case of C11G C39G, the self-cleavage is reported as 0.11. C11G C39A gave a self-cleavage of 0.38. C12A A57G showed a self-cleavage of 1.06. C11U G33C gave a self-cleavage of 0.14. Work on C11U G33A yielded a self-cleavage of 0.42. Work on C11U G33U yielded a self-cleavage of 0.19. C11G U43A showed a self-cleavage of 0.67. Work on C11G U43C yielded a self-cleavage of 0.29. In the case of G10U G52U, the self-cleavage is reported as 0.09. C11A A65U gave a self-cleavage of 0.18. For C11A A65G, the self-cleavage was 0.26. Work on C11A U41C yielded a self-cleavage of 0.58. Work on C11A U41A yielded a self-cleavage of 0.33. C11A G46C showed a self-cleavage of 0.13. For C11U G53U, the self-cleavage was 0.43. C11U G53C gave a self-cleavage of 0.4. Variant G10U U54C has a self-cleavage of 0.34. In the case of C11G G70U, the self-cleavage is reported as 0.23. With C11G G70A the self-cleavage was 0.26. Variant C11G A35G has a self-cleavage of 0.56. In the case of C11G A35U, the self-cleavage is reported as 0.18. C11G A35C showed a self-cleavage of 0.33. For C11G U25A, the self-cleavage was 0.1. Work on C11G U25C yielded a self-cleavage of 0.22. G10U G33U showed a self-cleavage of 0.1. Work on G10U G33A yielded a self-cleavage of 0.23. For C11U G61C, the self-cleavage was 0.11. C11A U26C gave a self-cleavage of 0.18. Work on C11A U26A yielded a self-cleavage of 0.3. In the case of C11G A75U, the self-cleavage is reported as 0.78. Work on C11G A75G yielded a self-cleavage of 0.41. In the case of C11G U80C, the self-cleavage is reported as 0.55. For C11G U80A, the self-cleavage was 0.76. With G10U U74C the self-cleavage was 0.46. Work on C11U U41C yielded a self-cleavage of 0.51. Variant C11U U41A has a self-cleavage of 0.3. Work on C11G U31C yielded a self-cleavage of 0.22. Work on C11G U31A yielded a self-cleavage of 0.33. C11G U31G gave a self-cleavage of 0.27. With C11U U69A the self-cleavage was 0.24. With C11U U49C the self-cleavage was 0.24. With C11U U49A the self-cleavage was 0.32. Variant C11U C32A has a self-cleavage of 0.2. Variant C11A A15G has a self-cleavage of 0.21. C11A A15U showed a self-cleavage of 0.37. In the case of G10U A77U, the self-cleavage is reported as 0.07. With G10U A77G the self-cleavage was 0.35. G10U U41A gave a self-cleavage of 0.22. C11A A57G showed a self-cleavage of 0.33. Work on C12A A18U yielded a self-cleavage of 0.48. C11A U25A showed a self-cleavage of 0.45. In the case of C11A U25C, the self-cleavage is reported as 0.25. In the case of C11A U74C, the self-cleavage is reported as 0.6. C11U C23U showed a self-cleavage of 0.24. In the case of C11G C71U, the self-cleavage is reported as 0.16. Work on C12A A13C yielded a self-cleavage of 1.23. In the case of C12A A13U, the self-cleavage is reported as 1.25. C12A A13G gave a self-cleavage of 0.89. Work on C11U G52A yielded a self-cleavage of 0.62. C11U showed a self-cleavage of 0.44. C11G gave a self-cleavage of 0.52. For C11A, the self-cleavage was 0.37. With C11G C32U the self-cleavage was 0.16. With C11G C32A the self-cleavage was 0.31. For C11U A47U, the self-cleavage was 0.31. C11U A47G gave a self-cleavage of 0.36. For C12A A28G, the self-cleavage was 0.59. With C12A A28U the self-cleavage was 0.92. Variant C12A A28C has a self-cleavage of 0.57. In the case of C12A U26A, the self-cleavage is reported as 1.08. Variant G10U U43C has a self-cleavage of 0.34. C11U A13C gave a self-cleavage of 0.09. C11U A13U showed a self-cleavage of 0.49. Variant C11U A13G has a self-cleavage of 0.43. C11G C34G gave a self-cleavage of 0.38. With C11A A21G the self-cleavage was 0.24. C11U U43C showed a self-cleavage of 0.35. Work on C11U U43A yielded a self-cleavage of 0.68. For C11G C81U, the self-cleavage was 0.86. Work on C12A U51A yielded a self-cleavage of 1.06. Work on C11U C68A yielded a self-cleavage of 0.11. Work on C11U A57G yielded a self-cleavage of 0.33. For C11U U51G, the self-cleavage was 0.35.
